According to publication PMC6505963:

Columns and labels:
BLM RQC (GST-free) = BLM RQC (GST-free) (human, UniProt P54132 1068-1209); test: fluorescence polarization; FP: 10 mM Tris-HCl pH 7.5, 25 mM NaCl, 1 mM DTT, 100 pM DNA, 25 C; EMSA: 10 mM Tris-HCl pH 8.0, 2 mM DTT, 1 mM EDTA, 20% glycerol, 0.2 uM DNA, 4 C, 30 min, 7.5%
GST-BLM RQC S1121A = GST-BLM RQC S1121A (human, UniProt P54132 1068-1209, S1121A); test: EMSA; FP: 10 mM Tris-HCl pH 7.5, 25 mM NaCl, 1 mM DTT, 100 pM DNA, 25 C; EMSA: 10 mM Tris-HCl pH 8.0, 2 mM DTT, 1 mM EDTA, 20% glycerol, 0.2 uM DNA, 4 C, 30 min, 7.5%
Chain of GST-BLM RQC S1121A (P54132 1068-1209 S1121A): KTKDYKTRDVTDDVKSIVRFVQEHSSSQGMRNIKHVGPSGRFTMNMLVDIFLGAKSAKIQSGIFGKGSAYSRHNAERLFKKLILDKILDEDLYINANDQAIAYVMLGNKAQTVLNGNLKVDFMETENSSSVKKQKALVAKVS

GST-BLM RQC R1139A = GST-BLM RQC R1139A (human, UniProt P54132 1068-1209, R1139A); test: as above
Chain of GST-BLM RQC R1139A (P54132 1068-1209 R1139A): as the sequence (P54132 1068-1209 S1121A) above, with A54S, R72A counted along it

GST-BLM RQC K1125A = GST-BLM RQC K1125A (human, UniProt P54132 1068-1209, K1125A); test: as above
Chain of GST-BLM RQC K1125A (P54132 1068-1209 K1125A): as the sequence (P54132 1068-1209 S1121A) above, with A54S, K58A counted along it

GST-BLM RQC = GST-BLM RQC (human, UniProt P54132 1068-1209); test: EMSA; 1, 5, 10 uM protein; FP: 10 mM Tris-HCl pH 7.5, 25 mM NaCl, 1 mM DTT, 100 pM DNA, 25 C; EMSA: 10 mM Tris-HCl pH 8.0, 2 mM DTT, 1 mM EDTA, 20% glycerol, 0.2 uM DNA, 4 C, 30 min, 7.5%
Chain of GST-BLM RQC (P54132 1068-1209): as the sequence (P54132 1068-1209 S1121A) above, with A54S counted along it

Chain of BLM RQC (GST-free) (P54132 1068-1209): as the sequence (P54132 1068-1209 S1121A) above, with A54S counted along it

Binder | Kd (BLM RQC (GST-free)) | binding signal (GST-BLM RQC S1121A) | binding signal (GST-BLM RQC R1139A) | binding signal (GST-BLM RQC K1125A) | binding result (GST-BLM RQC)
forked duplex (dsDNA) DNA 1: TTTTTTTTTTAGGGCATGCACTAC DNA 2: GTAGTGCATGCCCTAATTTTTTTT | ~700 nM |  |  |  | 
Holliday junction (HJ) (structured_DNA) DNA 1: CTAGAACAGCATGTCCTAGCAAGCCAGAATTC DNA 2: GAATTCTGGCTTGCTAGGACATCTTTGCCCAC DNA 3: GTGGGCAAAGATGTCCTAGCAATGTAATCGTC DNA 4: GACGATTACATTGCTAGGACATGCTGTTCTAG |  | ~10 % loss of binding vs wild type | ~70 % loss of binding vs wild type | ~50 % loss of binding vs wild type | binds
